Measurements published in patent publication US20240101682A1 (PINETREE THERAPEUTICS, published 2024).
Residue numbers refer to the chain shown, from its start. One block for each binder: values may come before it.

Key:
[1] = target: T1, recombinant human NRP1, biotinylated (human, UniProt O14786-2 22-644, limits assumed, biotinylated (site not stated)); assay: BLI (Octet Red 96), biotinylated antigen on streptavidin sensor, bsAb in solution, bivalent format
T1 construct: also called huNRP1; recombinant NRP1

[2] = target: T2, recombinant human EGFR, biotinylated (human, UniProt P00533 25-645, biotinylated (site not stated)); assay: as above
T2 construct: also called huEGFR; recombinant huEGFR

B1: bsAb with heavy chain polypeptide SEQ ID NO: 1 and light chain SEQ ID NO: 12 (control) (bispecific antibody, human IgG2, kappa)
heavy: QVQLQESGPGLVKPSETLSLTCTVSGGSVSSGDYYWTWIRQSPGKGLEWIGHIYYSGNTNYNPSLKSRLTISIDTSKTQFSLKLSSVTAADTAIYYCVRDRVTGAFDIWGQGTMVTVSSASTKGPSVFPLAPCSRSTSESTAALGCLVKDYFPEPVTVSWNSGALTSGVHTFPAVLQSSGLYSLSSVVTVPSSNFGTQTYTCNVDHKPSNTKVDKTVERKCCVECPPCPAPPVAGPSVFLFPPKPKDTLMISRTPEVTCVVVDVSHEDPEVQFNWYVDGVEVHNAKTKPREEQFNSTFRVVSVLTVVHQDWLNGKEYKCKVSNKGLPAPIEKTISKTKGQPREPQVYTLPPSREEMTKNQVSLTCLVKGFYPSDIAVEWESNGQPENNYKTTPPMLDSDGSFFLYSKLTVDKSRWQQGNVFSCSVMHEALHNHYTQKSLSLSPGKGGGGSGGGGSGGGGSHTPGNSKPTRTPRR
light: not shown
Kd [1]: 69.7 nM

B2: bsAb with heavy chain polypeptide SEQ ID NO: 3 and light chain SEQ ID NO: 12 (bispecific antibody, human IgG2, kappa)
heavy: QVQLQESGPGLVKPSETLSLTCTVSGGSVSSGDYYWTWIRQSPGKGLEWIGHIYYSGNTNYNPSLKSRLTISIDTSKTQFSLKLSSVTAADTAIYYCVRDRVTGAFDIWGQGTMVTVSSASTKGPSVFPLAPCSRSTSESTAALGCLVKDYFPEPVTVSWNSGALTSGVHTFPAVLQSSGLYSLSSVVTVPSSNFGTQTYTCNVDHKPSNTKVDKTVERKCCVECPPCPAPPVAGPSVFLFPPKPKDTLMISRTPEVTCVVVDVSHEDPEVQFNWYVDGVEVHNAKTKPREEQFNSTFRVVSVLTVVHQDWLNGKEYKCKVSNKGLPAPIEKTISKTKGQPREPQVYTLPPSREEMTKNQVSLTCLVKGFYPSDIAVEWESNGQPENNYKTTPPMLDSDGSFFLYSKLTVDKSRWQQGNVFSCSVMHEALHNHYTQKSLSLSPGKGGGGSGGGGSGGGGSEVQLVESGGGLVQPGGSLRLSCAASGFTFSSYAMSWVRQAPGKGLEWVSQISPAGGYTNYADSVKGRFTISADTSKNTAYLQMNSLRAEDTAVYYCARGELPYFRMSKVMDVWGQGTLVTVSSGGGGSGGGGSGGGGSDIQMTQSPSSLSASVGDRVTITCRASQFLSSYLAWYQQKPGKAPKLLIYGASARASGVPSRFSGSGSGTDFTLTISSLQPEDFATYYCQQYLASPATFGQGTKVEIK
light: not shown
Kd [2]: < 0.1 nM | Kd [1]: 0.53 nM

Next, values leading:

Kd [2]: < 0.1 nM | Kd [1]: 0.19 nM
B3: bsAb with heavy chain polypeptide SEQ ID NO: 2 and light chain SEQ ID NO: 12 (bispecific antibody, human IgG2, kappa)
heavy: B2 heavy with F564Y, F626Y, L627F, A651S, A691G, A694P
light: not shown

Kd [2]: < 0.1 nM
B4: bsAb with heavy chain polypeptide SEQ ID NO: 4 and light chain SEQ ID NO: 12 (bispecific antibody, human IgG2, kappa)
heavy: B2 heavy with F564Y, R565Q, F626Y, L627F
light: not shown
